Sequences and labels used below:
T1: CD97 EGF_(1,2,5) fragment D81A, without His-tag (human, UniProt P48960-2 21-165, D81A)
T1 sequence: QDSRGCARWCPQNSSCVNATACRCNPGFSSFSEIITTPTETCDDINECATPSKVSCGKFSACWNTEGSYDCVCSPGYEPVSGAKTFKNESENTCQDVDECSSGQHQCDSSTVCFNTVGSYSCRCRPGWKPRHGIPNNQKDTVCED

T2: CD97 EGF_(1,2,5) fragment D63L, without His-tag (human, UniProt P48960-2 21-165, D63L)
T2 sequence: T1 sequence with D43L, A61D

T3: CD97 EGF_(1,2,5) fragment V137A, without His-tag (human, UniProt P48960-2 21-165, V137A)
T3 sequence: T1 sequence with A61D, V117A

T4: CD97 EGF_(1,2,5) fragment E86A, without His-tag (human, UniProt P48960-2 21-165, E86A)
T4 sequence: T1 sequence with A61D, E66A

T5: CD55 SCR1–4 domains (35–285), His-tagged (human, UniProt P08174 35-285)
T5 construct: CD55 (complement decay-accelerating factor), human, UniProt P08174, SCR1–4 domains, residues 35–285; Vector pLEXm with N-terminal signal peptide; codon-optimized gene; In the crystal and SAXS rows it stood as the C-terminal part of the chimera m9; also called decay-accelerating factor; not shown: His6, C-terminal, kept
T5 sequence (looked up): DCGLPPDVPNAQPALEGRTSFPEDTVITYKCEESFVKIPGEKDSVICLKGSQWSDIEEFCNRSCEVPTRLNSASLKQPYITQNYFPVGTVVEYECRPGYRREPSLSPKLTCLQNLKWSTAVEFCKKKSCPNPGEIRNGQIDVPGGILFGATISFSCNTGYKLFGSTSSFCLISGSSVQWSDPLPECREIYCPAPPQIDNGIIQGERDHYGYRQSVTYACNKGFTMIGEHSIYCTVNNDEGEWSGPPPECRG

B1: CD55 SCR1–4 domains (35–285), His-tagged (domain or fragment)
chain: T5 sequence (looked up)
B2: EMR2 EGF_(1,2,5) (24–168) fragment, His6 removed (domain or fragment)
chain: T1 sequence with N13D, T39M, P51L, A61D
B3: CD97 EGF_(1,2,5) fragment D63L, without His-tag (domain or fragment, human, UniProt P48960-2 21-165, looked up)
chain: T1 sequence with D43L, A61D
notes: CD97, human, EGF_(1,2,5) isoform fragment, residues 21–165, with D63L; Made by overlapping PCR, cloned to the same vector as m3; not shown: His6, C-terminal, cleaved
B4: CD97 EGF_(1,2,5) fragment V137A, without His-tag (domain or fragment, human, UniProt P48960-2 21-165, looked up)
chain: T1 sequence with A61D, V117A
notes: CD97, human, EGF_(1,2,5) isoform fragment, residues 21–165, with V137A (in EGF5); Made by overlapping PCR, cloned to the same vector as m3; also called V137A mutant; not shown: His6, C-terminal, cleaved
B5: CD97 EGF_(1,2,5) fragment E86A, without His-tag (domain or fragment, human, UniProt P48960-2 21-165, looked up)
chain: T1 sequence with A61D, E66A
notes: CD97, human, EGF_(1,2,5) isoform fragment, residues 21–165, with E86A; Made by overlapping PCR, cloned to the same vector as m3; not shown: His6, C-terminal, cleaved
B6: CD97 EGF_(1,2,5) fragment D81A, without His-tag (domain or fragment, human, UniProt P48960-2 21-165, looked up)
chain: T1 sequence
notes: CD97, human, EGF_(1,2,5) isoform fragment, residues 21–165, with D81A; Made by overlapping PCR, cloned to the same vector as m3; not shown: His6, C-terminal, cleaved

Assay [1] deals with CD55 SCR1–4 domains (35–285), His-tagged (human) (UniProt P08174). In words: SPR; Biacore T200; His-tagged CD55 immobilized on nickel coated NTA chip; CD97 (WT, mutants) or EMR2 without His-tag injected at 50 μl/min for 2 min; 20 mM Tris, pH 7.5, 200 mM NaCl, 2 mM CaCl2, 0.05% Tween 20. A general note: SPR reads the build-up and loss of mass on a sensor chip optically.
Assay [2] concerns the target T1, CD97 EGF_(1,2,5) fragment D81A, without …. In words: SPR.
Assay [3] concerns the target T2, CD97 EGF_(1,2,5) fragment D63L, without …. In words: SPR.
Assay [4] has as its target T3, CD97 EGF_(1,2,5) fragment V137A, …. As to the kind of experiment: SPR.
For assay [5], the target named is T4, CD97 EGF_(1,2,5) fragment E86A, without …. In words: SPR.
Assay [6] has as its target B1. As to the kind of experiment: SPR.
Assay [7] addresses T5, CD55 SCR1–4 domains (35–285), His-tagged. As to the kind of experiment: SPR; Biacore T200; His-tagged CD55 immobilized on nickel coated NTA chip; CD97 (WT, mutants) or EMR2 without His-tag injected at 50 μl/min for 2 min; 20 mM Tris, pH 7.5, 200 mM NaCl, 2 mM CaCl2, 0.05% Tween 20. To be noted: both partners purified.

Substitutions are numbered along the chain they refer to. In names and notes the source's numbering stands.

The results in this text go back to article PMC8191316, “Structural basis for CD97 recognition of the decay-accelerating factor CD55 suggests mechanosensitive activation of adhesion GPCRs” (The Journal of Biological Chemistry, 2021).

The Kd is the equilibrium constant for the complex coming apart. A high value points to a looser complex. As usually defined, the koff is the rate constant with which the complex falls apart. A low value points to slow dissociation. Broadly, the kon is a measure of how fast the partners come together.

In assay [1], “CD97 EGF_(1,2,5) fragment, WT, without His-tag (SPR construct with TEV site) (from UniProt P48960-2 21-165) (domain or fragment)” showed a Kd of 3.2 µM, a koff of 0.00173 s⁻¹ and a kon of 546 M⁻¹ s⁻¹.

For B1, the dissociation rate constant (koff) in assay [2] worked out at 0.00122 s⁻¹; in assay [3], 0.000968 s⁻¹; in assay [4], 0.00163 s⁻¹; in assay [5], 0.00141 s⁻¹.

For B2, the off-rate (koff) in assay [6] was 0.00149 s⁻¹. In assay [1], this molecule showed a Kd of 43 µM.

For B3, in assay [7], the Kd came out at 85.2 µM.

B4: in assay [7], the affinity, expressed as Kd, was 25.3 µM.

Molecule B5 gave a dissociation constant (Kd) in assay [7] of 17.6 µM.

For B6, in assay [7], the dissociation constant (Kd) is 66.4 µM.
